Two molecules from US20220401484A1 (BIONTECH, published 2022) can be followed below.

Test [1] addresses PRAME peptide … presented by the HLA-A*02:01-encoded molecule (human). Description: cell-based or functional assay.
The target of test [2] is T1, PRAME peptide on HLA-A*02:02 (human).
T1 peptide: SLLQHLIGL
Description: cytokine release.

The target of test [3] is T2, irrelevant peptide peptide on HLA-A*02:01 (human).
T2 peptide: GLSNTHVL
Description: cytokine release.

Test [4] concerns the target T3, PRAME peptide on HLA-A*02:04 (human).
T3 peptide: SLLQHLIGL
Description: cytokine release.

The target in test [5] is T4, PRAME peptide on HLA-A*02:01 (human).
T4 peptide: SLLQHLIGL
Description: IFN-gamma immunoassay; general statement of the description and claim 4; the same paragraph says preferably less than 10^-8 M (FIG. 2); full-length, on cells.

B1: TCR T23.8-2.1-027-004 (TCR, V domains shown)
V domain 1: GQQLNQSPQSMFIQEGEDVSMNCTSSSIFNTWLWYKQDPGEGPVLLIALYKAGELTSNGRLTAQFGITRKDSFLNISASIPSDVGIYFCAGLADYGGSQGNLIFGKGTKLSVKP
V domain 2: DSGVTQTPKHLITATGQRVTLRCSPRSGDLSVYWYQQSLDQGLQFLIQYYNGEERAKGNILERFSAQQFPDLHSELNLSSLELGDSALYFCASSVWASGGYEQYFGPGTRLTVTE
On to B1, for which the “EC50 value of the relative IFN-gamma release (peptide concentration on T2 cells)” value in test [1] amounted to 11.6 nM.

B2: TCR T23.8-2.1-027-004 (TCR, V domains shown)
Valpha: GQQLNQSPQSMFIQEGEDVSMNCTSSSIFNTWLWYKQDPGEGPVLLIALYKAGELTSNGRLTAQFGITRKDSFLNISASIPSDVGIYFCAGLADYGGSQGNLIFGKGTKLSVKP
Vbeta: DSGVTQTPKHLITATGQRVTLRCSPRSGDLSVYWYQQSLDQGLQFLIQYYNGEERAKGNILERFSAQQFPDLHSELNLSSLELGDSALYFCASSVWASGGYEQYFGPGTRLTVT
Regarding B2, the binding result in test [2] is recorded as “recognises”; in test [3], “no recognition”; in test [4], “recognises”. The molecule also yielded an EC50 of peptide in test [5] of less than 100 nM.
